According to publication PMC3958920 (FEBS Open Bio, 2014):

Key:
SEC = biological target: the molecule itself; assay: SEC
purified protein [1] = substrate: O=C(O)C1=NCCC1; assay: purified protein; conditions: NADPH
purified protein [2] = substrate: O=C(O)C1=NCCCC1; assay: purified protein; conditions: NADPH
purified protein [3] = substrate: O=C(O)C1=NC[C@@H](O)C1; assay: purified protein; conditions: NADPH
purified protein [4] = substrate: O=C(O)[C@@H]1CCCCN1; assay: purified protein; conditions: NADP+
purified protein [5] = substrate: O=C(O)[C@@H]1CCCN1; assay: purified protein; conditions: NADP+
[6] = potassium phosphate pH 7.0, 30 °C
[7] = potassium phosphate pH 6.5, 30 °C

| Protein | stoichiometry N (SEC) | Km (purified protein [1]; [7]) [mM] | kcat (purified protein [1]; [7]) [s⁻¹] | kcat/Km (purified protein [1]; [7]) [M⁻¹ s⁻¹] | Km (purified protein [2]; [7]) [mM] | kcat (purified protein [2]; [7]) [s⁻¹] | kcat/Km (purified protein [2]; [7]) [M⁻¹ s⁻¹] | Km (purified protein [3]; [7]) [mM] | kcat (purified protein [3]; [7]) [s⁻¹] | kcat/Km (purified protein [3]; [7]) [M⁻¹ s⁻¹] | Km (purified protein [4]; glycine-NaOH pH 10.5, 30 °C) [mM] | kcat (purified protein [4]; glycine-NaOH pH 10.5, 30 °C) [s⁻¹] | kcat/Km (purified protein [4]; glycine-NaOH pH 10.5, 30 °C) [M⁻¹ s⁻¹] | Km (purified protein [5]; glycine-NaOH pH 10.5, 30 °C) [mM] | kcat (purified protein [5]; glycine-NaOH pH 10.5, 30 °C) [s⁻¹] | kcat/Km (purified protein [5]; glycine-NaOH pH 10.5, 30 °C) [M⁻¹ s⁻¹] | other results |
| --- | --- | --- | --- | --- | --- | --- | --- | --- | --- | --- | --- | --- | --- | --- | --- | --- | --- |
| CpLhpH, trans-3-hydroxy-L-proline dehydratase of Colwellia psychrerythraea 34H (enzyme, UniProt Q485S0 1-355, looked up) MTKNIAQAAVKFEQWQPKIEQESYLTINSLECHTGGEPLRIITSGFPVLKGNTILAKANDCKQNYDQLRRALMFEPRGHADMYGAIITDAERDDSHFGAVFIHNEGYSSMCGHAVIALTKTAVESGVVARTGDVTQVVIDVPCGQIYAMAYSHNNVVKHVSFQCVPSFVYAKDQQVEVDGIGMVQFDIAYGGAFYAYVQASSLGLSLVPEQQEKLIAYGRKIKQAIIPQFEINHPTTAELSFLYGVIFIDDSPNQDVHSRNVCIFADGELDRSPTGSGVSGRIALHHAKQQIVLNETITIESILASSFSVRAIETVCFAGFDAVIPEVTGDAYVCGKGQWFINAEDPLKYGFLLR | 2 | – | – | – | – | – | – | – | – | – | – | – | – | – | – | – | – |
| PaLhpD, Pyr2C/Pip2C reductase of Pseudomonas aeruginosa (enzyme, Pseudomonas aeruginosa PAO1, UniProt Q9I492 1-334, looked up) MIRMTLDEVRELAVRILRRHAFSEAHVQAVADTLVAGERDECASHGIWRLLGCIATLKAGKVSADAEPELHDIAPGLLRVDAHGGFSQCAFRLGLPHLLEKARSQGIAAMAVNRCVHFSALWVEVEALTEAGLVALATTPSHAWVAPAGGRKPIFGTNPIAFGWPRPDGPPFVFDFATSAVARGEIQLHERAGKPIPLGWGVDEQGEPTTDASAALRGAMLTFGGHKGSALAAMVELLAGPLIGDLTSAESLAYDEGSRSSPYGGELLIAIDPRRMLGASAEEHLARAETLFEGIVEQGARLPSQRRFEARERSARDGVTIPEALHRELLALLE | 2 | – | – | – | – | – | – | – | – | – | – | – | – | – | – | – | Km (purified protein [1]; [6]): 0.447 ± 0.040 mM; kcat (purified protein [1]; [6]): 41.7 ± 2 s⁻¹; kcat/Km (purified protein [1]; [6]): 93300 ± 3670 M⁻¹ s⁻¹; Km (purified protein [2]; [6]): 1.57 ± 0.3 mM; kcat (purified protein [2]; [6]): 35.3 ± 4.83 s⁻¹; kcat/Km (purified protein [2]; [6]): 22500 ± 1130 M⁻¹ s⁻¹; Km (purified protein [3]; [6]): 0.835 ± 0.109 mM; kcat (purified protein [3]; [6]): 14.5 ± 1.18 s⁻¹; kcat/Km (purified protein [3]; [6]): 17400 ± 800 M⁻¹ s⁻¹; Km (purified protein [4]; glycine-NaOH pH 10.0, 30 °C): 34.8 ± 4.0 mM; kcat (purified protein [4]; glycine-NaOH pH 10.0, 30 °C): 2.25 ± 0.233 s⁻¹; kcat/Km (purified protein [4]; glycine-NaOH pH 10.0, 30 °C): 64.7 ± 0.833 M⁻¹ s⁻¹; Km (purified protein [5]; glycine-NaOH pH 10.0, 30 °C): 18.5 ± 2.1 mM; kcat (purified protein [5]; glycine-NaOH pH 10.0, 30 °C): 3.42 ± 0.3 s⁻¹; kcat/Km (purified protein [5]; glycine-NaOH pH 10.0, 30 °C): 185 ± 5 M⁻¹ s⁻¹ |
| AbLhpI, Δ1-pyrroline-2-carboxylate reductase of Azospirillum brasilense (enzyme, UniProt V5YW53 1-311, looked up) MTALSPIPVFDAADTAALLAYPALLATLGQAVADYAAGEIVSPERLVVPLQAGGVMLSMPSSARDLATHKLVNVCPGNGARGLPTILGQVTAYDASTGEMRFALDGPTVTGRRTAAVTALGIQALHGAAPRDILLIGTGKQAANHAEALAAIFPEARLHVRGTSADSAAAFCAAHRAQAPRLVPLDGDAIPDAIDVVVTLTTSRTPVYREAAREGRLVVGVGAFTADAAEIDANTVRASRLVVDDPAGARHEAGDLIVAQVDWQHVASLADVLGGTFDRSGPLLFKSVGCAAWDLAACRTARDALAARRAG | 2 | 0.628 ± 0.045 | 523 ± 21.7 | 835000 ± 23300 | 0.474 ± 0.050 | 166 ± 10.2 | 352000 ± 16800 | 0.491 ± 0.063 | 10.3 ± 0.967 | 21200 ± 750 | 6.54 ± 0.96 | 2.5 ± 0.233 | 383 ± 20 | 3.63 ± 0.31 | 3.92 ± 0.117 | 1080 ± 61.7 | – |
| AbLhpH, trans-3-hydroxy-L-proline dehydratase of Azospirillum brasilense (enzyme, UniProt V5YXI5 1-335, looked up) MKITRSLSTVEVHTGGEAFRIVTSGLPRAPGDTIVQRRAWLKENADEIRRALMFEPRGHADMYGGYLTEPVSPNADFGVIFVHNEGYSDHCGHGVIALSTAAVELGWVQRTVPETRVGIDAPCGFIEAFVKWDGEHAGPVRFVNVPSFIWQRDVSVETPSFGTVTGDIAYGGAFYFYVDGAPFDLPVREAAVEKLIRFGAEVKAAANAKYPVVHPEIPEINHIYGTIIANAPRHPGSTQANCCVFADREVDRSPTGSGTGGRVAQLYQRGLLAAGDTLVNESIVGTVFKGRVLRETTVGDIPAVIPEVEGSAHICGFANWIVDERDPLTYGFLVR | 2 | – | – | – | – | – | – | – | – | – | – | – | – | – | – | – | – |
| CpLhpI, Δ1-pyrroline-2-carboxylate reductase of Colwellia psychrerythraea 34H (enzyme, UniProt Q485R8 1-316, looked up) MKIISAEQVHQNLNFEELIPLLKQSFSRPFSMPQRQVYSLAPEQSENHDAFALLPSWNEEVIGNKAFTYFPDNAKKHDLPGLFSKIMLFKRQTGEPLALVDGTSVTYWRTAAISALASQLLSRKNSQHLMLFGTGNLASYLVKAHLTVRDIKQVTLWGRNAKKVSKLIADFSILYPAVTFKTSVDVNAEVASADIICCATGAKTPLFDGNSVSAGCHIDCLGNHMTDARECDTTTILRARVFVDSLTNTLNEAGELLIPMAEDAFNKDEIVGELADMCKTPSMLRQSSDEITLFKSVGTAISDLVAAHSVVEKLAD | 2 | 5.90 ± 0.36 | 124 ± 7.83 | 21170 ± 33.3 | 7.26 ± 1.22 | 1.38 ± 0.228 | 190 ± 3.33 | 8.28 ± 2.45 | 1.02 ± 0.287 | 124 ± 2.33 | 80.1 ± 2.8 | 0.0213 ± 0.000667 | 0.267 ± 0.0167 | 18.3 ± 2.4 | 1.09 ± 0.115 | 59.5 ± 1.5 | – |
| C14orf149, human trans-3-hydroxy-L-proline dehydratase (enzyme, UniProt Q96EM0 1-354, looked up) MESALAVPRLPPHDPGTPVLSVVDMHTGGEPLRIVLAGCPEVSGPTLLAKRRYMRQHLDHVRRRLMFEPRGHRDMYGAVLVPSELPDAHLGVLFLHNEGYSSMCGHAVLALGRFALDFGLVPAPPAGTREARVNIHCPCGLVTAFVACEDGRSHGPVRFHSVPAFVLATDLMVDVPGHGKVMVDIAYGGAFYAFVTAEKLGLDICSAKTRDLVDAASAVTEAVKAQFKINHPDSEDLAFLYGTILTDGKDAYTKEPTTNICVFADEQVDRSPTGSGVTARIALQYHKGLLELNQMRAFKSSATGSVFTGKAVREAKCGDFKAVIVEVSGQAHYTGTASFIIEDDDPLRDGFLLK | 2 | – | – | – | – | – | – | – | – | – | – | – | – | – | – | – | – |
